Measurements taken from patent publication US20250026813A1 (published 2025).

Key:
[1] = molecular target: SARS-CoV-2 spike protein bearing furin mutation and truncation in retention sequence, on pseudoviral particles (SARS-CoV-2, UniProt P0DTC2 14-1255); test: cell-based or functional assay
[2] = molecular target: SARS-CoV-2 spike protein bearing furin mutation and truncation in retention sequence (on pseudoviral envelope) (SARS-CoV-2, UniProt P0DTC2 14-1273); test: cell-based or functional assay

| Binder | PV neutralization % (Ab 1 ug/mL) [1] [%] | PV neutralisation IC50 [1] [nM] | PV neutralization % (Ab 1 ug/mL) [2] [%] | PV neutralisation IC50 [2] [nM] |
| --- | --- | --- | --- | --- |
| YANG-1101 (antibody, V domains shown) VH: QLQLQESGPGLVKPSETLSLTCTVSGGSISSSSYYWGWIRQPPGKGLEWIGSIYYSGSIYYNPSLKSRVTISVDTSKNQFSLKLSSVTAADTAVYYCASWFGEFLKADAFDIWGQGTMVTVSS VL: QSALTQPASVSGSPGQSITISCTGTSSDVGGYSYVSWYQQHPGKAPKLMIYDVSKRPSGVSNRFSGSKSGNTASLTISGLQAEDEADYYCCSYAGGSTFVVFGGGTKLTVL | 98 |  |  |  |
| YANG-1102 (antibody, V domains shown) VH: QVQLQESGPGLVKPSGTLSLTCAVSGGSISTTNWWSWVRQSPGRGLEWIGEIFHIGYTNYNPSLKSRVTISVDKSKNQFSLKLNSVTVADTAVYYCARRVVMDTAMAHFDCWGQGTLVTVSS VL: QSVLTQPPSVSGAPGQRVTISCTGSSSNIGAGYDVHWYQHLPGTAPKLLIYININRPSGVPDRFSGSKSGTSASLVIAGLQAEDGADYYCQSYDSSLSGWVFGGGTRLTVL | 86.9 | 0.84 |  |  |
| YANG-1103 (antibody, V domains shown) VH: EVQMVESGGGLIQPGGSLRLSCAASGLTVSSNYMSWVRQAPGKGLEWVSVIYSGGSTFYADSVKDRFTISRDNSKNTLYLQMNSLRAEDTAVYYCARENWNYVFDCWGQGTLVTVSS VL: DIQLTQSPSFLSASVGDRVTITCWASQGISSYLAWYQQKPGKAPKLLIYAASTLQSGVPSRFSGSGSGTEFTLTISSLQPEDFATYYCQQLNSHPIIFGQGTRLEIK | 100 | 0.28 |  |  |
| YANG-1107 (antibody, V domains shown) VH: EVQMVESGGGLIQSGGSLRLSCAASGLSVSSNYMSWVRQAPGKGLEWVAVIYSGGSIFYADSVKDRFTISRDNSKNTLYLQMNSLRAEDTAVYYCARENWNYVFDCWGQGTLVTVSS VL: DIQLTQSPSFLSASVGDRVTITCWASQGISTYLAWYQQKPGKAPKLLIYAASTLQSGVPSRFSGSGSGTEFTLTISSLQPEDFATYYCQQLSSHPIIFGQGTRLEIK | 99.2 |  |  |  |
| YANG-1105 (antibody, V domains shown) VH: EVQVVESGGGLIQPGGSLRLSCAASGITVSRNYMNWVRQAPGKGLEWVSVIYSGGSTFYADSVKGRFTISRDNSKNTLYLQMNSLRADDTGVYYCAREGYGMDVWGQGTTVTVSS VL: DIQLTQSPSFLSASVGDRVTITCWASQGISSYLAWYQQKPGKAPKLLIYSASTLQSGVPSRFSGSGSGTEFTLTINSLQPEDFATYYCQQLNSHPCSFGQGTKLEIK | 97.2 |  |  |  |
| YANG-1106 (antibody, V domains shown) VH: EVQLVESGGGLIQPGGSLRLSCAASEFIVSRNYMSWVRQAPGKGLEWVSVIYSGGSTFYADSVRGRFTISRDNSKNTLYLQMNSLRAEDTAVYYCARDYGDQYFDYWGQGTLVTVSS VL: EMVMTQSPATLSVSPGEKATLSCRASQTVSTNLAWYQQKPGQSPRLLIYGASTRATGIPARFSGSGSGTEFTLTISSLQSEDFAIYYCQQYVDWPRTFGQGTTVEIK | 99.5 |  |  |  |
| YANG-1108 (antibody, V domains shown) VH: QVQLVESGGGVVHPGRSLRLSCVVSGFTFSGYGMYWVRQAPGKGLEWVAVISKDGSDKYYADSVKGRFTISRDNSKNTLNLQMNSLRAEDTAVFYCAKERTFQGSGSYYNNYFYYGMDVWGQGTTVTVSS VL: AIQLTQSPSSLSASVGDRVTITCRASQGISSALAWYQQKPGKAPNLLIYDASSLESGVPSRFSGSGFGTDFTLTINSLQPEDFASYYCQQFKSYPLTFGGGTKVEIK | 95.2 |  |  |  |
| YANG-1109 (antibody, V domains shown) VH: EVQLVESGGGLIQPGGSLRLSCGVSGLTVSRNYMNWVRQAPGKGLEWVSVIYSGGSTFYADSVKGRFTISRDNSKNTLYLQMISLRAEDSGVYYCAREGFGMDVWGQGTTVTVSS VL: DIQLTQSPSFLSASVGDRVTITCWASQGISNYLAWYQQKPGKAPKLLIYSASTLQSGVPSRFSGSGSGTEFTLTISNLQPADIATYYCQLLNSHPCSFGQGTKLEIK | 99.4 | 1.81 |  |  |
| YANG-1110 (antibody, V domains shown) VH: QVQLAESGGGVVQPGRSLRLSCVVSGFTFSNYGMHWVRQAPGKGLEWVVFISNDGSNEDFVDSVKGRFTISRDNSKNTLYLQMNSLRAEDTAVYYCAKGGYFYGSGNYYYYYGMDVWGQGTTVTVSS VL: QPVLTQSSSASASLGSSVKLTCTLSSVHSNHIIAWHQQQPGKAPRYLMKLEGSGRYSKGSGVPDRFSGSSSEADRYLTISNLQSEDEADYYCETWDNNTYVFGSGTKVTVL | 99.3 |  |  |  |
| YANG-1111 (antibody, V domains shown) VH: EVQLVESGGGLIQPGGSLRLSCAASGFTFSSYSINWVRQAPGKGLEWVSFISGSSTTIYYADSVKGRFTISRDSAKNSLYLQMNSLRDEDTAVYYCARGLRSSIAPRPDYFDSWGQGILVTVSS VL: SYVLTQPPSVSVAPGKTARITCGGNNIGSKGVHWYQQKPGQAPVLVIYYDSDRPSGIPERFSGSNSGNTATLTISRVEAGDEADYSCQVWDSSSDHPVFGGGTKLTVQ | 72.7 | 1.82 |  |  |
| YANG-1112 (antibody, V domains shown) VH: QITLKESGPTLVKPTQTLTLTCTFSGFSLSTGGVAVGWIRQPPGKALEWLAIIYWDDDKRYSPSLKSRLTITKDTSKNQVVLTMTNMDPVDTATYYCAHWGKDSFDIWGQGTMVTVSS VL: SYELTQPPSVSVSPGQTARITCSGDALPRKYAYWYQQKSGQAPVLVIYEDNNRPSGIPERFSGSSSGTTATLTVSGAQVEDEADYYCYSTDTSGYVVFGGGTKLTVL | 89.2 | 0.52 |  |  |
| YANG-1119 (antibody, V domains shown) VH: EVQLVESGGGLVKPGGSLRLSCAASGFTFSSYSMNWVRQAPGKGLEWVSSISTGSSYIFYADSVKGRFTISRDNAKNSLYLQMNSLRAEDTAVYYCAKTGDLPFFDYWGQGTLVTVSS VL: QSALTQPASVSGSPGQSITISCTGTSSDVGRYNYVSWYQQHPGKAPKLMIYEVSNRPSGVSNRFSGSKSGNTASLTISGLQAEDEADYYCSSYTSSSTMVFGGGTKLTVL | 99 | 0.96 |  |  |
| YANG-1113 (antibody, V domains shown) VH: EVQLVESGGGLVKPGGSLRLSCAASGFTFSSYSMNWVRQAPGKGLEWVSSISTGSSYIFYADSVKGRFTMSRDNAKNSLYLQMNSLRAEDTAVYYCAKTGDLPFFDYWGQGTPVTVSS VL: QSALTQPASVSGSPGQSITISCTGTSSDVGRYNYVSWYQQHPGKAPKLMIYEVSNRPSGVSNRFSGSKSGNTASLTISGLQAEDEADYYCSSYTSSSTMVFGGGTKLTVL | 97.6 |  |  |  |
| YANG-1114 (antibody, V domains shown) VH: EVHLVESVGGLVKPGGSLRLSCAASGFTFSSYSMNWVRQAPGKGLEWVSSISTGSSYIFYADSVKGRFTISRDNAKNSLYLQMNSLRAEDTAVYYCAKTGDLPFFDYWGQGTLVTVSS VL: QSALTQPASVSGSPGQSITISCTGTSSDVGRYNYVSWYQQHPGKAPKLMIYEVSNRPSGVSNRFSGSKSGNTASLTISGLQAEDEADYYCSSYTSSSTMVFGGGTKLTVL | 93.2 |  |  |  |
| YANG-1115 (antibody, V domains shown) VH: EVQLVESGGGLVKPGGSLRLSCAASGFTFSSYSMNWVRQAPGKGLEWVSSISTGSSYIFYADSVKGRFTISRDNAKNSLYLQMNSLRAEDTAVYYCAKTGDLPFFDYWGQGTLVTVSS VL: QSALTQPASVSGSPGQSITISCTGTSSDVGRYNYVSWYQQHPGKAPKLMIYEVSNRPSGVSNRFSGSKSGNTASLTISGLQAEDEADYYCSSYTSSSTMVFGGGTKLSVL | 97.8 |  |  |  |
| YANG-1116 (antibody, V domains shown) VH: EVQLVESGGGLVKPGGSLRLSCEASGFNFRSYALNWVRQAPGKGLEWVSSISTGSSYIFYADSVKGRFTISRDNAKNSLSLQMNSLRAEDTAVYYCAKTGDLPFFDYWGQGTLVTVSS VL: QSALTQPASVSGSPGQSITISCTGTSSDVGRYNYVSWYQQHPGKAPKLMIYEVSNRPSGVSNRFSGSKSGNTASLTISGLQAEDEADYYCISYTSSSTMVFGGGTKLTVL | 99.2 |  |  |  |
| YANG-1117 (antibody, V domains shown) VH: EVQLVESGGGLVKPGGSLRLSCAASGFTFSSYSVNWVRQAPGKGLEWVSSISTGSSYIFYADSVKGRFTISRDNAKNSLYLQMNSLRAEDTAVYYCVKTGDLPFFDYWGQGTLVTVSS VL: QSALTQPASVSGSPGQSITISCTGTRSDVGRYNYVSWYQQHPGKAPKLMIYEVTNRPSGVSNRFSGSKSGNTASLTISGLQAEDEADYYCSSYTNNSTMVFGGGTKLTVL | 97.8 |  |  |  |
| YANG-2202 (antibody, V domains shown) VH: EVQLVESGGGLVQPGGSLRLSCAASGFTFSSFAMSWVRQAPGKGLEWVAAFSGRGAITHYTDSVKGRFTISRDNSKNTLYLQMNSLRAEDTAVYYCATYNWNPYYFDFWGQGTLVTVSS VL: DIQMTQSPSSVSASIGDRVTITCRASQDINIWLAWYQQKPGKAPNLLIFDTSNLQSGVPSRFSGSGSGSDFTLTISSLQPEDFATYYCQQGNSFPRTFGQGTRLEIK |  |  | 37.5 |  |
| YANG-2203 (antibody, V domains shown) VH: QVQLVQSGAEVKQPGASVKVSCRASGYALTSFYVHWVRQAPGQGLEWMGIIKPSGGDTIYAQNLQGRVTMTRDTSTNTFYVELSSLRSEDTALYYCAISGNTRAFEIWGQGTMVTVSL VL: QSVLTQPPSVSAAPGQKVTISCSGSSSNIGNNFVSWYQQLPGMVPKLLIYANNKRPSGIPDRFSGSRSGTSATLGITGLQTGDEADYYCGTWDSSRSAVLFGGGTKMTVL |  |  | 35.7 | 5.45 |
| YANG-2204 (antibody, V domains shown) VH: QMQLVQSGAEVKKPGASVKFSCKTSGYTFTNYYMVWVRQAPGQGLEWMGIIKPSGGNTIYAQKFQGRVTMTRDTSTNTVYMDLTSLRSEDTAVYYCARTGDRAFDVWGQGTMVTVSS VL: QSVLTQPPSVSAAPGQKVTISCSGSSSNIGNNYVSWYQQLPGTAPKLLIYDNNKRPSGIPDRFSGSKSGTSATLGITGLQTGDEADYYCGTWDSSLGAGVFGGGTKLTVL |  |  | 41 | 3.3 |
